The source of these data is paper PMC9646764 (2022).

First the molecules themselves.
B1: Chicken TFPI-Fc (Fc fusion)
chain: TDDSDGEEEDVLGVPLPPLKLGHSDCALKADEGPCKAIHVRFYFNIQSRECEIFEYGGCHGNANNFLTLEECQNKCVVTELPLEVMLAKNEREKPNFCYQEKDPGICRGFFSRYFYNKETKICEIFKYGGCLGNQNNFKSLEECQTTCQGNPNLLSVAPDEEHPNHMNSSSPEEERNQFPGIVE
B2: mTFPI-Fc (Fc-tagged mouse TFPI) (Fc fusion)
chain: LSEEADDTDSELGSMKPLHTFCAMKADDGPCKAMIRSYFFNMYTHQCEEFIYGGCEGNENRFDTLEECKKTCIPGYEKTAVKAASGAERPDFCFLEEDPGLCRGYMKRYLYNNQTKQCERFVYGGCLGNRNNFETLDECKKICENPVHSPSPVNEVQMSDYVTDGNTVTDRSTVNNIVVPQSPKVPRRR
B3: TcdB4.2_(1286-1805) (domain or fragment)
chain: TNIRISLDSNTRSFIVPVITTEYIREKLSYSFYGSGGTYALSLSQYNMNINIELNENDTWVIDVDNVVRDVTIESDKIKKGDLIENILSKLSIEDNKIILDNHEINFSGTLNGGNGFVSLTFSILEGINAVIEVDLLSKSYKVLISGELKTLMANSNSVQQKIDYIGLNSELQKNIPYSFMDDEGKENGFINCFTKEGLFVSELSDVVLIIKVYMDNSKPPFGYYSNDLKDVKVITKDDVIIITGYYLKDDIKISLSFTIQDKNTIKLNGVYLDENGVAEILKFMNKKGSTNTSDSLMSFLESMNIKSIFIKSLKSNAKLILDTNFIISGTTFIGQFEFICDKDNNIQPYFIKFNTLETKYTLYVGNRQNMIVEPNYNLDDSGDISSTVINFSQKYLYGIDSCVNKVVISPGIYTDEINITPVHEANNTYPEVIVLDTNYISEKINININDLSIRYVWSNDGSDFILMSTDEENKVSQVKIRFTNVFKGNTISDKISFNFSDKQDISINKIISTFTPSYY

Holding throughout (experiment): BLI
Assay [1] has as its target TcdB10.1_(1285-1804) ( | Clostridioides difficile).
Assay [2] concerns the target B1.
Assay [3] addresses B1.
Assay [4] addresses TFPI-Fc (human IgG-Fc-tagged TFPI without the GPI anchor) (human, UniProt P10646 29-209).
Assay [5] has as its target B2.

Sequence of TFPI-Fc (human IgG-Fc-tagged TFPI without the GPI anchor) (P10646 29-209): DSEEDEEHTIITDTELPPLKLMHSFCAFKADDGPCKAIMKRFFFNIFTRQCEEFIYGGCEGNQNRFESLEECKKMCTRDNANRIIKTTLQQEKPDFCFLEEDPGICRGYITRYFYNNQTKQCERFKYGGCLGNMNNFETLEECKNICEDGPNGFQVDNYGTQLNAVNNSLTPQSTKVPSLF

Broadly, the Kd is a measure of binding affinity in units of concentration. Low readings indicate a tighter complex, high ones a looser complex. A word on the koff: it is the rate constant with which the complex falls apart. Low values mean a long-lived complex, high ones a short-lived complex. As to B1, in assay [1], the Kd was determined as 70.5 nM and the koff was found to be 0.006 s⁻¹.
In assay [1], B2 yielded a Kd of 465 nM and a koff of 0.00637 s⁻¹.
B3 came in with a Kd in assay [2] of 336 nM. Also, the values for the koff in assay [3], in assay [4] and in assay [5] were 0.00885 s⁻¹, 0.00708 s⁻¹ and 0.00344 s⁻¹, respectively.
